According to the supplement of paper PMC10065799, “High-throughput profiling of sequence recognition by tyrosine kinases and SH2 domains using bacterial peptide display” (eLife, 2023):
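Note: 11-residue human phosphosite peptides and single-mutation variants displayed on the E. coli surface, counted by deep sequencing, each peptide's frequency after selection divided by its frequency in the unselected input library; frequency after pTyr selection over input frequency; kinase dosed for 20-30% of maximal phosphorylation in three min.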

These sequences were tested on AncSZ (assay: phosphorylation enrichment, bacterial display (enrichment ratio); higher = better substrate or ligand; peptides without Tyr show the background).
With GPKFVYDEIDN [ACOX1_Y232_G231V] the phosphorylation enrichment was 1.1.
With IVFVIYDEVVK [SLC25A1_Y297] the phosphorylation enrichment was 1.16.
In the case of ASFGPYTRVQS [FOXL2_Y258_YF], the phosphorylation enrichment is reported as 0.61.
Work on PLKYLYPNIDR [STAT1_Y668_K673R] yielded a phosphorylation enrichment of 1.23.
ANSSFYSTRSA [NUMA1_Y1836] was tested, and the phosphorylation enrichment was 0.56.
For REHTVYWEPRK [MAGEA4_Y240_G241W], the phosphorylation enrichment was 1.1.
Work on RGRSTYFWPSP [GAGE12J_Y9_R13S_YF] yielded a phosphorylation enrichment of 0.669.
Sequence FDDIANIRKTL [PIK3CA_Y1021_Y1021N] has a phosphorylation enrichment of 0.873.
With SRPTQYSSFAC [SPEM2_Y104_S108A] the phosphorylation enrichment was 0.66.
In the case of VKFGAYINDFK [GLB1_Y488_N484K_YF], the phosphorylation enrichment is reported as 0.839.
In the case of LDFNEYFRFLN [HPRT1_Y198_D201Y_YF], the phosphorylation enrichment is reported as 2.34.
For VNFGAYINNFK [GLB1_Y488_D491N_YF], the phosphorylation enrichment was 1.03.
In the case of DLAGRYFALRS [CKB_Y173_K177R_YF], the phosphorylation enrichment is reported as 0.587.
Sequence MSPPGYKLLTG [GJA1_Y286_V289L] has a phosphorylation enrichment of 0.625.
For VATRWYPSPEL [CDKL5_Y177_R178P], the phosphorylation enrichment was 0.891.
FYRKVYHLASV [RBL1_Y796] was tested, and the phosphorylation enrichment was 0.853.
With IYSGIYYKPES [L2HGDH_Y102_H98Y] the phosphorylation enrichment was 3.08.
Work on GGMAKYTRLHN [EHHADH_Y4_E3K] yielded a phosphorylation enrichment of 0.492.
Sequence KLRMEYLSLMH [NCKIPSD_Y660] has a phosphorylation enrichment of 0.857.
NFRTTYINANE [KCNH2_Y475_V476I] gave a phosphorylation enrichment of 0.733.
TSRVLYPNDNF [PYGM_Y281_I276T] gave a phosphorylation enrichment of 0.64.
DDPRRYQKFGF [OAS1_Y362_YF] gave a phosphorylation enrichment of 0.593.
YSGLAYTMERS [GLUD1_Y512_H507Y] was tested, and the phosphorylation enrichment was 0.765.
Work on LLQKTYNFNVL [SLC4A1_Y553_P548L_YF] yielded a phosphorylation enrichment of 1.41.
HGAGHYEDTIL [ALK_Y1604_P1599H] was tested, and the phosphorylation enrichment was 1.26.
For PKSLFYLLLKP [TRPC6_Y775_L780P], the phosphorylation enrichment was 1.64.
LEYAKYGSLRG [RET_Y809_V804L] showed a phosphorylation enrichment of 0.63.
Sequence KNAEKYAEEDR [HSPA9_Y568] has a phosphorylation enrichment of 1.08.
QMEKIYTQQIQ [CCNB1IP1_Y125] showed a phosphorylation enrichment of 1.12.

Each sequence was assayed against Fyn (UniProt P06241) in the same assay as above.
Sequence of Fyn (P06241 whole entry, looked up): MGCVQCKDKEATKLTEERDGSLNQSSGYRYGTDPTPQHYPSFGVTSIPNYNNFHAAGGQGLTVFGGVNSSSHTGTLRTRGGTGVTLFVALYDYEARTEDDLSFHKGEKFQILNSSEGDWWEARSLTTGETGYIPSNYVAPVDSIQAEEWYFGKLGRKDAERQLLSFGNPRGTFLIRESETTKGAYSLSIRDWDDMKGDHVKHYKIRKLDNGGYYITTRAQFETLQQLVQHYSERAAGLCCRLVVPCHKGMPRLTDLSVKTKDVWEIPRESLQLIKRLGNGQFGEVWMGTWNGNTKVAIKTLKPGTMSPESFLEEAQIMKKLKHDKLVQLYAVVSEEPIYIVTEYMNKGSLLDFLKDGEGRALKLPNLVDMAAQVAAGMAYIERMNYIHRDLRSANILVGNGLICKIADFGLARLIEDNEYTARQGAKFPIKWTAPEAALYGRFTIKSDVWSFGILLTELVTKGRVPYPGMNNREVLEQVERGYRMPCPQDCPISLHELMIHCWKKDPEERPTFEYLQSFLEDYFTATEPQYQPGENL
GPKFVYDEIDN [ACOX1_Y232_G231V] showed a phosphorylation enrichment of 0.537.
IVFVIYDEVVK [SLC25A1_Y297] showed a phosphorylation enrichment of 1.03.
In the case of ASFGPYTRVQS [FOXL2_Y258_YF], the phosphorylation enrichment is reported as 0.515.
In the case of PLKYLYPNIDR [STAT1_Y668_K673R], the phosphorylation enrichment is reported as 0.313.
Work on ANSSFYSTRSA [NUMA1_Y1836] yielded a phosphorylation enrichment of 0.513.
Sequence REHTVYWEPRK [MAGEA4_Y240_G241W] has a phosphorylation enrichment of 1.39.
RGRSTYFWPSP [GAGE12J_Y9_R13S_YF] showed a phosphorylation enrichment of 0.511.
FDDIANIRKTL [PIK3CA_Y1021_Y1021N] gave a phosphorylation enrichment of 0.465.
Sequence SRPTQYSSFAC [SPEM2_Y104_S108A] has a phosphorylation enrichment of 0.563.
Sequence VKFGAYINDFK [GLB1_Y488_N484K_YF] has a phosphorylation enrichment of 0.431.
LDFNEYFRFLN [HPRT1_Y198_D201Y_YF] was tested, and the phosphorylation enrichment was 2.25.
Sequence VNFGAYINNFK [GLB1_Y488_D491N_YF] has a phosphorylation enrichment of 0.463.
Work on DLAGRYFALRS [CKB_Y173_K177R_YF] yielded a phosphorylation enrichment of 0.38.
MSPPGYKLLTG [GJA1_Y286_V289L] was tested, and the phosphorylation enrichment was 0.454.
VATRWYPSPEL [CDKL5_Y177_R178P] was tested, and the phosphorylation enrichment was 0.439.
FYRKVYHLASV [RBL1_Y796] was tested, and the phosphorylation enrichment was 0.444.
For IYSGIYYKPES [L2HGDH_Y102_H98Y], the phosphorylation enrichment was 10.2.
In the case of GGMAKYTRLHN [EHHADH_Y4_E3K], the phosphorylation enrichment is reported as 0.318.
Sequence KLRMEYLSLMH [NCKIPSD_Y660] has a phosphorylation enrichment of 0.438.
NFRTTYINANE [KCNH2_Y475_V476I] showed a phosphorylation enrichment of 0.412.
TSRVLYPNDNF [PYGM_Y281_I276T] showed a phosphorylation enrichment of 0.456.
Sequence DDPRRYQKFGF [OAS1_Y362_YF] has a phosphorylation enrichment of 0.502.
Work on YSGLAYTMERS [GLUD1_Y512_H507Y] yielded a phosphorylation enrichment of 1.09.
Work on LLQKTYNFNVL [SLC4A1_Y553_P548L_YF] yielded a phosphorylation enrichment of 0.749.
For HGAGHYEDTIL [ALK_Y1604_P1599H], the phosphorylation enrichment was 0.734.
In the case of PKSLFYLLLKP [TRPC6_Y775_L780P], the phosphorylation enrichment is reported as 0.439.
Sequence LEYAKYGSLRG [RET_Y809_V804L] has a phosphorylation enrichment of 1.87.
With KNAEKYAEEDR [HSPA9_Y568] the phosphorylation enrichment was 0.528.
Work on QMEKIYTQQIQ [CCNB1IP1_Y125] yielded a phosphorylation enrichment of 0.663.

These sequences were tested on Fer (mouse) in the same assay as above.
Work on GPKFVYDEIDN [ACOX1_Y232_G231V] yielded a phosphorylation enrichment of 0.409.
With IVFVIYDEVVK [SLC25A1_Y297] the phosphorylation enrichment was 0.708.
ASFGPYTRVQS [FOXL2_Y258_YF] gave a phosphorylation enrichment of 0.409.
Sequence PLKYLYPNIDR [STAT1_Y668_K673R] has a phosphorylation enrichment of 0.773.
For ANSSFYSTRSA [NUMA1_Y1836], the phosphorylation enrichment was 0.356.
Sequence REHTVYWEPRK [MAGEA4_Y240_G241W] has a phosphorylation enrichment of 0.607.
For RGRSTYFWPSP [GAGE12J_Y9_R13S_YF], the phosphorylation enrichment was 0.504.
FDDIANIRKTL [PIK3CA_Y1021_Y1021N] showed a phosphorylation enrichment of 0.459.
For SRPTQYSSFAC [SPEM2_Y104_S108A], the phosphorylation enrichment was 0.435.
VKFGAYINDFK [GLB1_Y488_N484K_YF] was tested, and the phosphorylation enrichment was 0.406.
Sequence LDFNEYFRFLN [HPRT1_Y198_D201Y_YF] has a phosphorylation enrichment of 0.562.
For VNFGAYINNFK [GLB1_Y488_D491N_YF], the phosphorylation enrichment was 0.579.
With DLAGRYFALRS [CKB_Y173_K177R_YF] the phosphorylation enrichment was 0.36.
In the case of MSPPGYKLLTG [GJA1_Y286_V289L], the phosphorylation enrichment is reported as 0.474.
Work on VATRWYPSPEL [CDKL5_Y177_R178P] yielded a phosphorylation enrichment of 0.289.
For FYRKVYHLASV [RBL1_Y796], the phosphorylation enrichment was 0.779.
In the case of IYSGIYYKPES [L2HGDH_Y102_H98Y], the phosphorylation enrichment is reported as 15.8.
In the case of GGMAKYTRLHN [EHHADH_Y4_E3K], the phosphorylation enrichment is reported as 0.343.
With KLRMEYLSLMH [NCKIPSD_Y660] the phosphorylation enrichment was 0.455.
Work on NFRTTYINANE [KCNH2_Y475_V476I] yielded a phosphorylation enrichment of 0.383.
For TSRVLYPNDNF [PYGM_Y281_I276T], the phosphorylation enrichment was 0.432.
With DDPRRYQKFGF [OAS1_Y362_YF] the phosphorylation enrichment was 0.414.
YSGLAYTMERS [GLUD1_Y512_H507Y] was tested, and the phosphorylation enrichment was 0.398.
With LLQKTYNFNVL [SLC4A1_Y553_P548L_YF] the phosphorylation enrichment was 1.05.
With HGAGHYEDTIL [ALK_Y1604_P1599H] the phosphorylation enrichment was 4.64.
PKSLFYLLLKP [TRPC6_Y775_L780P] showed a phosphorylation enrichment of 0.568.
LEYAKYGSLRG [RET_Y809_V804L] was tested, and the phosphorylation enrichment was 2.26.
Sequence KNAEKYAEEDR [HSPA9_Y568] has a phosphorylation enrichment of 0.499.
Sequence QMEKIYTQQIQ [CCNB1IP1_Y125] has a phosphorylation enrichment of 0.651.

These sequences were tested on c-Src in the same assay as above.
Sequence GPKFVYDEIDN [ACOX1_Y232_G231V] has a phosphorylation enrichment of 0.514.
For IVFVIYDEVVK [SLC25A1_Y297], the phosphorylation enrichment was 0.855.
With ASFGPYTRVQS [FOXL2_Y258_YF] the phosphorylation enrichment was 0.481.
PLKYLYPNIDR [STAT1_Y668_K673R] gave a phosphorylation enrichment of 0.684.
For ANSSFYSTRSA [NUMA1_Y1836], the phosphorylation enrichment was 0.468.
With REHTVYWEPRK [MAGEA4_Y240_G241W] the phosphorylation enrichment was 1.85.
In the case of RGRSTYFWPSP [GAGE12J_Y9_R13S_YF], the phosphorylation enrichment is reported as 0.505.
With FDDIANIRKTL [PIK3CA_Y1021_Y1021N] the phosphorylation enrichment was 0.416.
SRPTQYSSFAC [SPEM2_Y104_S108A] showed a phosphorylation enrichment of 0.665.
In the case of VKFGAYINDFK [GLB1_Y488_N484K_YF], the phosphorylation enrichment is reported as 0.468.
In the case of LDFNEYFRFLN [HPRT1_Y198_D201Y_YF], the phosphorylation enrichment is reported as 3.62.
VNFGAYINNFK [GLB1_Y488_D491N_YF] was tested, and the phosphorylation enrichment was 0.391.
DLAGRYFALRS [CKB_Y173_K177R_YF] gave a phosphorylation enrichment of 0.347.
For MSPPGYKLLTG [GJA1_Y286_V289L], the phosphorylation enrichment was 0.503.
In the case of VATRWYPSPEL [CDKL5_Y177_R178P], the phosphorylation enrichment is reported as 0.473.
FYRKVYHLASV [RBL1_Y796] showed a phosphorylation enrichment of 0.296.
IYSGIYYKPES [L2HGDH_Y102_H98Y] was tested, and the phosphorylation enrichment was 7.25.
For GGMAKYTRLHN [EHHADH_Y4_E3K], the phosphorylation enrichment was 0.334.
KLRMEYLSLMH [NCKIPSD_Y660] was tested, and the phosphorylation enrichment was 0.445.
NFRTTYINANE [KCNH2_Y475_V476I] was tested, and the phosphorylation enrichment was 0.584.
In the case of TSRVLYPNDNF [PYGM_Y281_I276T], the phosphorylation enrichment is reported as 0.415.
DDPRRYQKFGF [OAS1_Y362_YF] showed a phosphorylation enrichment of 0.321.
For YSGLAYTMERS [GLUD1_Y512_H507Y], the phosphorylation enrichment was 1.43.
Sequence LLQKTYNFNVL [SLC4A1_Y553_P548L_YF] has a phosphorylation enrichment of 0.594.
HGAGHYEDTIL [ALK_Y1604_P1599H] showed a phosphorylation enrichment of 0.752.
PKSLFYLLLKP [TRPC6_Y775_L780P] gave a phosphorylation enrichment of 0.684.
LEYAKYGSLRG [RET_Y809_V804L] was tested, and the phosphorylation enrichment was 2.49.
KNAEKYAEEDR [HSPA9_Y568] gave a phosphorylation enrichment of 0.411.
Work on QMEKIYTQQIQ [CCNB1IP1_Y125] yielded a phosphorylation enrichment of 1.55.
